The values that follow come from patent publication US20150376269A1 (Regeneron, published 2015).

For assay [1], the target named is T1, serum resistance-associated protein (SRA) from Trypanosoma brucei rhodesiense, recombinant SRA (SEQ ID NO: … (Trypanosoma brucei rhodesiense, UniProt O96637 31-274)).
T1 construct: also called SRA protein
T1 sequence: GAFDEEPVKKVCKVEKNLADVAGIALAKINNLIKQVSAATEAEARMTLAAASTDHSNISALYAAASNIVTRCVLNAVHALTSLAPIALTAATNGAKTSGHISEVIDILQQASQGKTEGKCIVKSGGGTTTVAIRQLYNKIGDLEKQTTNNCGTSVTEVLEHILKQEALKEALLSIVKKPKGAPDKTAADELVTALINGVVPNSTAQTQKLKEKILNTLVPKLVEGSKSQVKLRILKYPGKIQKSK
Nature of the assay: SPR, mAb captured, 25C, assoc. pH 7.4, dissoc. pH 4.5. In general terms: In SPR one partner is held on a chip, and binding of the other changes the refractive index at the surface.
Protocol: (§1) Equilibrium dissociation constants (KD) values for SRA binding to selected purified anti-SRA monoclonal antibodies were determined using a real-time surface plasmon resonance biosensor assay on a Biacore T200 instrument. […] SRA binding to the captured monoclonal antibodies was monitored for 4 min while the dissociation of mAb bound SRA was monitored for 7 min. Two different assays formats were adopted to characterize kinetics of SRA binding—(i) regular kinetics and (ii) pH4.5 chase. Regular kinetics experiments were performed using pH7.4 buffer as the running buffer and both the association and dissociation was performed in pH7.4. For the chase format, association and dissociation were performed in pH7.4 buffer and pH4.5 buffer respectively.
(§2) Kinetic association (kₐ) and dissociation (kd) rate constants were determined by processing and fitting the data to a 1:1 binding model using Scrubber 2.0c curve fitting software. Only the dissociation rate (kd) was calculated for the pH4.5 chase experiment. Binding dissociation equilibrium constants (KD) and dissociative half-lives (t½) were calculated from the kinetic rate constants as:

The target of assay [2] is T1, serum resistance-associated protein …. As to the kind of experiment: SPR, mAb captured, 25C, pH 7.4.
Protocol: as §1, §2
Assay [3] has the same target. Nature of the assay: SPR, mAb captured, pH 4.5, 25C; competitor biotin-apoL1 peptide.
For assay [4] the target is unchanged. Nature of the assay: SPR, 25C, t1/2 pH 7.4 over pH 4.5.
Protocol: as §1, §2
Assay [5] deals with T2, SRA.mmh.
T2 construct: also called SRA.mmh (CHO)
T2 antigen: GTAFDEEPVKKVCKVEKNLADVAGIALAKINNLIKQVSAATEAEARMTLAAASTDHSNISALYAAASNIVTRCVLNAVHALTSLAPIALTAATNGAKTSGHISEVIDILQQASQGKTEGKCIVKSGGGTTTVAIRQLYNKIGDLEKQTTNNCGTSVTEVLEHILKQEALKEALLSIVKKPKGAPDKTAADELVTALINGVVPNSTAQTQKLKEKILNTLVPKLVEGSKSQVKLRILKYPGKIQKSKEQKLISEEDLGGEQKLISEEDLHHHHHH
As to the kind of experiment: Octet, SRA.mmh captured on anti-Penta-His tips, mAb-1 at 50 ug/mL for 5 min, 25 C, pH 7.4. On the technique in general: BLI is a label-free optical method that tracks binding on a fibre tip over time.

Assay [6] addresses T1, serum resistance-associated protein …. As to the kind of experiment: SPR, mAb captured, 50 nM SRA, pH 4.5, 25C.
Assay [7] deals with T2, SRA.mmh. Nature of the assay: Octet, mAb-2 at 50 ug/mL on captured SRA.mmh after negative control α-PRLR H1H6800P as mAb-1 (row 32 (-)).
Assay [8] has as its target T1, serum resistance-associated protein …. As to the kind of experiment: SPR, mAb captured, pH 4.5, 25C; competitor biotin-mutant apoL1 peptide.

B1: H2aM10201N (antibody, V domains shown)
VH: QVQLLESGGGVVQPGKSLRLSCVASGSIFSIYGMNWVRQAPGKGLEWVASVSSDGSAKFYADSVKGRFTISRDNSNDTLFLQMTSLRAEDTAVYYCAKTLWNYLFDSWGQGTLVTVSS
VL: ENVLTQSPDTLSLSPGERATLSCRASQSITSNYLAWYQQKPGQTPRLLISFTSRRATGIPDRFSGSGSGTVFTLTISRLEPEDFAVYYCQQYGTSLTFGGGAKVEIR
notes: Chimeric antibody, human variable domains and mouse constant domains (mouse Fc, prefix H2aM); also called H2M10201N
For the molecule B1, in assay [1], the “t ½” value is 0.0117 h. For the same molecule, in assay [2], the Kd was determined as 0.245 nM, the kon was determined as 642000 M⁻¹ s⁻¹ and the “t ½” value is 1.23 h. In assay [3], the “50 nM SRA + 5 uM apoL1 peptide binding (RU)” value is 42 RU and the “% Blocking, apoL1 peptide” value was 61%. In addition, the “t ½ ratio pH 7.4/pH 4.5” value in assay [4] is 109. The “50 ug/mL mAb 1 Bound (nm)” value in assay [5] came to 1.27 nm. In addition, the “50 nM SRA binding (RU)” value in assay [6] turned out to be 109 RU. Moreover, the “Binding of mAb-2 to SRA Pre-complexed with mAb-1” value (“Binding … with mAb-1” for short) in assay [7] turned out to be 1.31. Also, in assay [8], the “50 nM SRA + 5 uM mutant apoL1 peptide binding (RU)” value stood at 108 RU and the “% Blocking, Mutant apoL1 peptide” value amounted to 0%.

B2: H1H10045P (antibody, V domains shown)
VH: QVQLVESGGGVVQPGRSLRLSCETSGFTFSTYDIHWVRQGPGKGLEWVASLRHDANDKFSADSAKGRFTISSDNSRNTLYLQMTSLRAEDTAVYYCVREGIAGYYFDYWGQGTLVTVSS
VL: DIQMTQSPSFVSASVGDRVTISCRASQDIHTWLAWYQQKPGKAPNLLIYAASGLHSRAPSRFSGSGSGTDFTLTISSLQPEDFATYYCQKADRFPFTFGPGTKVDIK
notes: Fully human antibody with human IgG1 Fc (prefix H1H)
Regarding B2, the “t ½” value in assay [1] was ≥ 3.85 h. Moreover, in assay [2], the Kd was ≤ 0.108 nM, the kon stood at 459000 M⁻¹ s⁻¹ and the “t ½” value is ≥ 3.85 h. In addition, in assay [3], the “50 nM SRA + 5 uM apoL1 peptide binding (RU)” value was 52 RU and the “% Blocking, apoL1 peptide” value amounted to 36%. In addition, in assay [5], the “50 ug/mL mAb 1 Bound (nm)” value was found to be 1.72 nm. Besides, in assay [6], the “50 nM SRA binding (RU)” value amounted to 82 RU. In addition, in assay [7], the “Binding … with mAb-1” value was 1.4. For the same molecule, in assay [8], the “50 nM SRA + 5 uM mutant apoL1 peptide binding (RU)” value was 77 RU and the “% Blocking, Mutant apoL1 peptide” value is 6%.

B3: H1H10056P (antibody, V domains shown)
VH: QVQLVESGGGVVQPGRSLRLSCSASGFTFSLYGMHWIRQAPGKGLEWVAVISYDGSNTYYGDSVKGRFTISRDNSKNTLYLQMNSLRTEDTAIYYCAKVYNWNYLFDYWGQGTLVTVSS
VL: EIVLTQSPDTLSLSPGERATLSCRASQNVNNNFLAWYQQKPGQAPRLLIYGASSRATDIPERFSGSGSGTDFTLTISRLEPEDFAVYYCLHYVNSRTFGQGTKVEIK
notes: as for B2
In the case of B3, in assay [1], the “t ½” value is 0.117 h. Further, in assay [2], the Kd is ≤ 0.134 nM, the kon stood at 372000 M⁻¹ s⁻¹ and the “t ½” value is ≥ 3.85 h. Also, in assay [3], the “50 nM SRA + 5 uM apoL1 peptide binding (RU)” value is -4 RU and the “% Blocking, apoL1 peptide” value was found to be 100%. In addition, the “t ½ ratio pH 7.4/pH 4.5” value in assay [4] was ≥ 31. In addition, the “50 ug/mL mAb 1 Bound (nm)” value in assay [5] amounted to 1.3 nm. The “50 nM SRA binding (RU)” value in assay [6] was 72 RU. In assay [7], the “Binding … with mAb-1” value was determined as 1.28. In assay [8], the “50 nM SRA + 5 uM mutant apoL1 peptide binding (RU)” value is 67 RU and the “% Blocking, Mutant apoL1 peptide” value is 7%.

B4: H1H10026P (antibody, V domains shown)
VH: QVQLVESGGGVVQPGRSLRLSCEASGFTFSIYGMHWVRQAPGKGLEWVAVISYDGTNRYYADSVKGRFTISRDNSKNTLYLQMNSLRAEDTAVYYCAKVNIWNFLFDYWGQGTLVTVSS
VL: EIVLTQSPGTLSLSPGERATLSCRASQSVSGNYLAWYQQKPGQAPRLLIYGPSSRATGIPDRFSGSGSGTDFTLTISRLEPEDFAVYYCQQYGTSLTFGGGTKVEIK
notes: as for B2
Turning to B4, the “t ½” value in assay [1] was determined as 1.75 h. In addition, in assay [2], the Kd is ≤ 0.0814 nM, the kon was 614000 M⁻¹ s⁻¹ and the “t ½” value was ≥ 3.85 h. For the same molecule, in assay [3], the “50 nM SRA + 5 uM apoL1 peptide binding (RU)” value amounted to 84 RU and the “% Blocking, apoL1 peptide” value was determined as 19%. Besides, the “t ½ ratio pH 7.4/pH 4.5” value in assay [4] was ≥ 2. Also, the “50 ug/mL mAb 1 Bound (nm)” value in assay [5] is 1.45 nm. The “50 nM SRA binding (RU)” value in assay [6] stood at 104 RU. Moreover, in assay [7], the “Binding … with mAb-1” value was 1.64. In assay [8], the “50 nM SRA + 5 uM mutant apoL1 peptide binding (RU)” value is 106 RU and the “% Blocking, Mutant apoL1 peptide” value was -2%.

B5: H1H10064P (antibody, V domains shown)
VH: QVQLVQSGAEVKKPGSSVKVSCKASGGSFSSNVFSWVRQAPGQGLEWMGGIIPIFGSANYAQKFQGRVTITTDESTTTAYMELSSLRSEDTAVYYCAIGGTGPSGYNWNYGAFYIWGQGTMVTVSS
VL: DIQMTQSPSSLSASVGDRVTITCRASQGIRNDLGWYQQKPGIAPKRLIYAASSLQSGVPSRFSGSGSGTEFTLTISSLQPEDFATYYCLQHNSYPYTFGQGTKLEIK
notes: as for B2
B5: in assay [1], the “t ½” value was 0.025 h. Also, in assay [2], the Kd turned out to be 0.546 nM, the kon turned out to be 1.6e+06 M⁻¹ s⁻¹ and the “t ½” value was 0.217 h. In assay [3], the “50 nM SRA + 5 uM apoL1 peptide binding (RU)” value is -11 RU and the “% Blocking, apoL1 peptide” value came out at 100%. Further, the “t ½ ratio pH 7.4/pH 4.5” value in assay [4] is 9. Moreover, the “50 ug/mL mAb 1 Bound (nm)” value in assay [5] came out at 1.25 nm. Further, the “50 nM SRA binding (RU)” value in assay [6] was 76 RU. Besides, the “Binding … with mAb-1” value in assay [7] was determined as 1.22. Also, in assay [8], the “50 nM SRA + 5 uM mutant apoL1 peptide binding (RU)” value worked out at 67 RU and the “% Blocking, Mutant apoL1 peptide” value was 11%.

B6: H1H10031P (antibody, V domains shown)
VH: EVQLVESGGNVVRPGGSLRLSCSGSGFAFENYGMSWVRQGPGKGLEWVSNINWNGGSLNYVDSVKGRFTISRDNAKNSLYLQMNSLRAEDTALYYCARVIVYGMDVWGQGTTVTVSS
VL: DIQMTQSPSSLSASVGDRVTITCRASQGIRNGLGWFQQKPGKAPKRLIYATSSLQSGVPSRFSGSGSGTEFTLTISSLQPEDFATYYCLQSNSYPWTFGQGTKVEIK
notes: as for B2
Regarding B6, the “t ½” value in assay [1] turned out to be 3.32 h. In assay [2], the Kd was ≤ 0.095 nM, the kon amounted to 526000 M⁻¹ s⁻¹ and the “t ½” value is ≥ 3.85 h. In assay [3], the “50 nM SRA + 5 uM apoL1 peptide binding (RU)” value came to 45 RU and the “% Blocking, apoL1 peptide” value amounted to 25%. Also, the “t ½ ratio pH 7.4/pH 4.5” value in assay [4] is ≥ 1. Also, the “50 ug/mL mAb 1 Bound (nm)” value in assay [5] was found to be 1.59 nm. In addition, the “50 nM SRA binding (RU)” value in assay [6] was found to be 60 RU. In addition, the “Binding … with mAb-1” value in assay [7] was determined as 1.58. Also, in assay [8], the “50 nM SRA + 5 uM mutant apoL1 peptide binding (RU)” value turned out to be 57 RU and the “% Blocking, Mutant apoL1 peptide” value was 6%.

B7: H2aM10200N (antibody, V domains shown)
VH: QVQLVQSGAEVKKPGSSVKVSCKASGGTFSSYAISWVRQAPGQGLEWMGGIIPFFGTATYAQKFQGRVTITTDESTRTVYMELSSLRYEDTAVYYCARWYSGYGGDFDYWGQGTLVTVSS
VL: AIQMTQSPSSLSASVGDRVTITCRASQGIRNDLGWFQQKPGKAPKLLIYAASSLQSGVPSRFSGSGSGTDFTLSISSLQPEDFATYYCLQDYSYPRTFGQGTKVEIK
notes: Hybridoma-derived chimeric antibody, human variable domains and mouse constant domains (mouse Fc, prefix H2aM); also called H2M10200N
Regarding B7, the “t ½” value in assay [1] turned out to be 0.0333 h. Moreover, in assay [2], the Kd turned out to be 0.0996 nM, the kon is 844000 M⁻¹ s⁻¹ and the “t ½” value turned out to be 2.28 h. Besides, in assay [3], the “50 nM SRA + 5 uM apoL1 peptide binding (RU)” value was -2 RU and the “% Blocking, apoL1 peptide” value was found to be 100%. In addition, the “t ½ ratio pH 7.4/pH 4.5” value in assay [4] was determined as 77. The “50 ug/mL mAb 1 Bound (nm)” value in assay [5] was determined as 1.59 nm. Also, the “50 nM SRA binding (RU)” value in assay [6] is 159 RU. For the same molecule, in assay [7], the “Binding … with mAb-1” value was found to be 1.28. In addition, in assay [8], the “50 nM SRA + 5 uM mutant apoL1 peptide binding (RU)” value was 150 RU and the “% Blocking, Mutant apoL1 peptide” value stood at 5%.

In general, Kd refers to the free concentration of one partner at which half of the binding sites on the other are occupied at equilibrium, for simple one-to-one binding. The kon is the rate constant with which the complex forms.
